US11001838B2, “Platform for screening phosphomevalonate decarboxylase” (The Regents of the University of California, priority 2017, dated 2021)
Numbering of substitutions follows the chain as printed. Names may count otherwise.

Key:
[1] = biological target: T1, Saccharomyces cerevisiae diphosphomevalonate decarboxylase (PMDsc), wild type, SEQ ID NO: 1 (Saccharomyces cerevisiae, UniProt P32377); parameters: His tag; made in house; host or cells: E. coli (Rosetta (DE3) is stated for the mutant plasmids); conditions: Kang et al., 2016, Krepkiy and Miziorko, 2004, cited from earlier work
T1 sequence (P32377 1-396): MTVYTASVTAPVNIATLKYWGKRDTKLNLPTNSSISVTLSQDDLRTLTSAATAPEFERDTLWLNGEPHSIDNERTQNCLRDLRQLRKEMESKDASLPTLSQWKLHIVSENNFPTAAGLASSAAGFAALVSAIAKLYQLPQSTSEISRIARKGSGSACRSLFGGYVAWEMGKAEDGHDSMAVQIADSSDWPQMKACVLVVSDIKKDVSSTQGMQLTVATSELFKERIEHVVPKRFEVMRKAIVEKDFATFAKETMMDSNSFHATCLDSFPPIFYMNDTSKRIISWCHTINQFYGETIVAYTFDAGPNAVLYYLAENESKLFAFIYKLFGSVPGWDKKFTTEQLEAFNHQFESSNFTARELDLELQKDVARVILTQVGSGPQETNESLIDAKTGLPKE

[2] = biological target: T2, Saccharomyces cerevisiae diphosphomevalonate decarboxylase (PMDsc, SEQ ID NO: 1) variant R74G (Saccharomyces cerevisiae, UniProt P32377, R74G); test: In vitro kinetics of MVAP decarboxylation by PMDsc R74G (coupled assay)
T2 sequence (P32377 1-396 R74G): T1 sequence (P32377 1-396) with R74G
Experimental: (§1) This turnover number (kobs) depends upon each mutant's kcat, KM, and KI, yielding a more accurate assessment of the turnover conditions in vivo (Kang et al., 2016).
(§2) In vitro enzyme kinetics of PMDsc were performed as described in the previous study (Kang et al., 2016). Briefly, enzymatic activity was determined by a spectrophotometric assay quantifying ADP product formation via the pyruvate kinase/lactate dehydrogenase coupled enzyme assay. Assay mixtures were prepared in 150 μL total volume containing 50 mM HEPES-KOH (pH 7.5), 10 mM MgCl2, 400 μM phosphoenolpyruvate, 400 μM NADH, 4 mM ATP, and 25 U of pyruvate kinase/lactate dehydrogenase. The reaction was initiated by enzyme after incubating PMDsc substrate and cofactor for fifteen minutes with coupled assay components. The MVAP was varied from 0.100-4.0 mM, and the reaction velocity was determined by monitoring the absorbance at 340 nm in a Spectramax 384plus microplate reader (Molecular Devices, USA). To obtain kinetic data relevant to non-competitive substrate inhibition, MVAP was varied from 0.100-100 mM. Enzyme concentration (ε=56,630 M^−1 cm^−1) was determined spectrophotometrically at 280 nm with a NanoDrop ND-1000 spectrophotometer. kcat and KM were derived for PMDsc mutants by fitting the initial velocities measured from 0.100-4.0 mM MVAP to the Michaelis-Menten equation; KI was determined for select mutants by fitting initial velocities measured from 0.100-100 mM MVAP to the non-competitive substrate inhibition equation. All kinetic analysis was performed in Graphpad Prism, version 7.0a.

[3] = biological target: T3, Saccharomyces cerevisiae diphosphomevalonate decarboxylase (PMDsc, SEQ ID NO: 1) variant M212Q (Saccharomyces cerevisiae, UniProt P32377, M212Q); test: In vitro kinetics of MVAP decarboxylation by PMDsc M212Q (coupled assay); type: biochemical; conditions: MVAP 0.100-4.0 mM, 4 mM ATP, pH 7.5; brackets: standard error
T3 construct: His tag; made in house; host or cells: E. coli Rosetta (DE3)
T3 sequence (P32377 1-396 M212Q): T1 sequence (P32377 1-396) with M212Q

[4] = biological target: T1, Saccharomyces cerevisiae diphosphomevalonate decarboxylase (PMDsc), wild type, SEQ ID NO: 1; test: In vitro kinetics of MVAP decarboxylation by PMDsc WT (pyruvate kinase/lactate dehydrogenase coupled assay)
Experimental: as §1, §2

[5] = biological target: T4, Saccharomyces cerevisiae diphosphomevalonate decarboxylase (PMDsc, SEQ ID NO: 1) variant Y19H (Saccharomyces cerevisiae, UniProt P32377, Y19H); test: In vitro kinetics of MVAP decarboxylation by PMDsc Y19H (coupled assay); type: biochemical
T4 construct: His tag; made in house; host or cells: E. coli Rosetta (DE3)
T4 sequence (P32377 1-396 Y19H): T1 sequence (P32377 1-396) with Y19H

[6] = previous study (Kang 2015); cited from earlier work
E. coli DH1 [7] = conditions: from a previous study (Kang et al., 2016); cited from earlier work
E. coli DH1 [8] = test: Growth of E. coli DH1 under the screening conditions (MEP pathway blocked by fosmidomycin, IPP-bypass pathway + IPK)
E. coli DH1 [9] = test: Isopentenol production in E. coli via IPP-bypass MVA pathway (GC-FID); type: cell-based, Escherichia coli; conditions: 48 hr
[10] = substrate: C[C@@](O)(CCOP(=O)(O)O)CC(=O)O; test: In vitro kinetics of MVAP decarboxylation by PMDsc R74H (coupled assay); type: biochemical, Saccharomyces cerevisiae; conditions: other: MVAP 0.100-4.0 mM, 4 mM ATP, pH 7.5, brackets: standard error
[11] = MVAP 0.100-4.0 mM, 4 mM ATP, pH 7.5, brackets: standard error
[12] = observed turnover number calculated at 100 mM MVAP, noncompetitive substrate inhibition

For `C[C@@](O)(CCOP(=O)(O)OP(=O)(O)O)CC(=O)O` [MVAPP, mevalonate 5-diphosphate], the “kcat (MVAPP)” value ([1]; original substrate MVAPP) is listed as 5.4 s⁻¹.

In the case of `C[C@@](O)(CCOP(=O)(O)O)CC(=O)O` [MVAP, mevalonate 5-phosphate], the kcat [2, 11] is reported as 0.14 s⁻¹, the kobs [2, 12] is reported as 0.07 s⁻¹ and the kcat/KM [3] is reported as 500 ± 100 M⁻¹ s⁻¹. For the same molecule, the Km [4, 11] was 2300 µM, the kcat [4, 11] was 0.15 s⁻¹ and the kobs [4, 12] was 0.02 s⁻¹. The “kcat (MVAP)” value ([1]; alternative substrate MVAP) was 0.14 s⁻¹, the kcat/KM [5, 11] was 780 ± 60 M⁻¹ s⁻¹ and the “increase of kcat/KM compared to wild type” value ([5]; Y19H versus wild type PMDsc, MVAP) was “about 10 fold”.

B1: Saccharomyces cerevisiae diphosphomevalonate decarboxylase (PMDsc, SEQ ID NO: 1) variant R74H (Saccharomyces cerevisiae S288C; R74H) (protein)
chain: T1 sequence (P32377 1-396) with R74H
notes: His tag; made in house; host or cells: E. coli Rosetta (DE3)
For B1, the “activity of WT for phosphomevalonate (MVAP)” value [6] is listed as 220%, the isopentenol titer (E. coli DH1 [7]) is listed as 770.3 mg/L and the “competitive growth of mixed culture (WT, K22M, R74H)” value (E. coli DH1 [8]; 10 μM fosmidomycin, several dilutions, sequencing) is listed as “dominant strain”. For the same molecule, the Growth rate (E. coli DH1 [8]; 10-fold higher inducer concentration (100 nM aTc)) was 0.83±0.01 hr^1, the Growth rate (E. coli DH1 [8]; Table 2, screening conditions, standard deviation in brackets) was 0.68 (0.04) hr^−1 and the Growth rate (E. coli DH1 [8]; screening conditions) was 0.68 ± 0.04 h⁻¹. For the same molecule, the “growth under fosmidomycin selection pressure” value (E. coli DH1 [8]; screening platform) was “grew faster than the strain with WT PMDsc”, the “48 hr Titer (isopentenol)” value (E. coli DH1 [9]) was 770 (263) mg/L and the Km [10] was 0.75 (0.05) mM. For the same molecule, the kcat [10] was 0.33 (0.03) sec^−1 and the kcat/Km [10] was 0.44 (0.05) mM^−1 sec^−1.
